According to patent publication US7598225B1 (priority 1995, dated 2009):

How the values were obtained:
[1] = tested on: PBMC from donors expressing the HLA A2 class 1 allele; assay type: cell-based, human
[2] = biological target: human HLA A2 molecules (Homo sapiens, UniProt P04439, /I121R/I166T/I218V/L300P/L318F/N151K/N90K/P208A/P217A/Q86G/Q94H/R138H/R169H/T345S); assay type: binding

Substance: PSA 154-163: PSA peptide, amino acids 154-163, sequence V I S N D V C A Q V (Table 7) (VISNDVCAQV)
- T cell lines from PBMC of two prostate cancer patients [1]: established
- score in T2 cell binding assay [2]: positive

Substance: PSA 146-154: PSA peptide, amino acids 146-154, sequence K L Q C V D L H V (Table 7) (KLQCVDLHV)
- score in T2 cell binding assay [2]: positive

Substance: PSA 141-150: PSA peptide, amino acids 141-150, sequence F L T P K K L Q C V (Table 7) (FLTPKKLQCV)
- score in T2 cell binding assay [2]: positive
